T1: human OX40 protein (human, UniProt P43489 29-216, limits assumed)
T1 sequence (looked up): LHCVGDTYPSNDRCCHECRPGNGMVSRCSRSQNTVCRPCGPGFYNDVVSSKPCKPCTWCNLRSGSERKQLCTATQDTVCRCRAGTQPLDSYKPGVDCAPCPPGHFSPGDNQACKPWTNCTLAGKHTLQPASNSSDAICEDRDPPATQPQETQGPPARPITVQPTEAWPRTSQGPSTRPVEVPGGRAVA

B1: 2p957 chimeric monospecific antibody (antibody, V domains shown)
VH: PVQLVESGGGLVQPGGSLRLSCAASGFSFRNYIMSWVRQAPGKGLEWLSSITNSGGITSYTESVKGRFTISRDNAKNTLYLQMNSLKPEDTAVYYCAQGGSDNYYRGSWGQGTQVTVSS
notes: Chimeric monospecific antibody
B2: b18 (2p1130) anti-5T4/CD40 bispecific antibody (bispecific antibody, human IgG1, kappa, N297A)
heavy 1: EVQLQQSGPELVKPGASVKISCKASGYAFSSSWMNWVKQRPGKGLEWIGRIYREDGHTNYNGKFKGKATLTADKSSTTAYMQLTSLTSEDSAVYFCANGGAMDYWGQGTSVTVSSASTKGPSVFPLAPSSKSTSGGTAALGCLVKDYFPEPVTVSWNSGALTSGVHTFPAVLQSSGLYSLSSVVTVPSSSLGTQTYICNVNHKPSNTKVDKKVEPKSCDKTHTCPPCPAPELLGGPSVFLFPPKPKDTLMISRTPEVTCVVVDVSHEDPEVKFNWYVDGVEVHNAKTKPREEQYASTYRVVSVLTVLHQDWLNGKEYKCKVSNKALPAPIEKTISKAKGQPREPQVCTLPPSREEMTKNQVSLSCAVKGFYPSDIAVEWESNGQPENNYKTTPPVLDSDGSFFLVSKLTVDKSRWQQGNVFSCSVMHEALHNHYTQKSLSLSPGK
light: DIQMTQSTSSLSASLGDRVTISCRASQDISNYLNWYQQKPDGTVKLLIYYTSRLHSGVPSRFSGSGSGTDYSLTISNLEQEDIATYFCQQDNTLPWTFGGGTKLEIKRTVAAPSVFIFPPSDEQLKSGTASVVCLLNNFYPREAKVQWKVDNALQSGNSQESVTEQDSKDSTYSLSSTLTLSKADYEKHKVYACEVTHQGLSSPVTKSFNRGEC
heavy 2: not shown
notes: also called 1+3 b18 format
B3: b11 (42p155z2) anti-5T4/CD40 bispecific antibody (bispecific antibody, human IgG1, kappa, N297A)
heavy: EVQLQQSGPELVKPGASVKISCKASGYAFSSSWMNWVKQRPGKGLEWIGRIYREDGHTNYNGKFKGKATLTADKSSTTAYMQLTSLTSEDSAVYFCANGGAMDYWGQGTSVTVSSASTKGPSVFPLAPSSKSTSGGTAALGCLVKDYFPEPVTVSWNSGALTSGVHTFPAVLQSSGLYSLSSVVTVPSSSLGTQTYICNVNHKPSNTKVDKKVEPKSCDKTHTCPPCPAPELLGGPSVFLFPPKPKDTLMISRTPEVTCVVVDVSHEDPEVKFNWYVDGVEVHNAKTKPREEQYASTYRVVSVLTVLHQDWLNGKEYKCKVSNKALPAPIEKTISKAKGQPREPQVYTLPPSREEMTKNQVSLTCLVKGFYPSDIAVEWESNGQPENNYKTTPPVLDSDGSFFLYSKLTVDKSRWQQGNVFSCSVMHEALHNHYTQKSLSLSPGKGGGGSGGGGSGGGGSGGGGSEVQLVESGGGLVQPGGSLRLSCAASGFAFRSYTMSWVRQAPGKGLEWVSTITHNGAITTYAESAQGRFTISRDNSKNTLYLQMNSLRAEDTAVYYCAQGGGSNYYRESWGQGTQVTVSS
light: DIQMTQSTSSLSASLGDRVTISCRASQDISNYLNWYQQKPDGTVKLLIYYTSRLHSGVPSRFSGSGSGTDYSLTISNLEQEDIATYFCQQDNTLPWTFGGGTKLEIKRTVAAPSVFIFPPSDEQLKSGTASVVCLLNNFYPREAKVQWKVDNALQSGNSQESVTEQDSKDSTYSLSSTLTLSKADYEKHKVYACEVTHQGLSSPVTKSFNRGEC
notes: also called b 1 (42p155z2); 2+2 b11 format
B4: 2p1130 chimeric monospecific antibody (antibody, V domains shown)
VH: EVQVVESGGGLVQPGGSLRLTCAASGFSVDDYGIGWFRQAPGREREGVACITPNGLMMNFANTVGSVAGRFSASRDSGENTVSLQMSSLKPEDTAIYFCAHSRDDSCRGSLSDYDDWGQGTQVTVSS
notes: as for B1
B5: 42p495 chimeric monospecific antibody (antibody, V domains shown)
VH: PVQLVESGGNLVQPGGSLRLSCVAPGFTSRNSAMSWVRQAPGKGLEWVSTIYSGKSNTDYADSVKGRFTISTDNAKNTLYLHMNKLKSEDTAVYYCAKGAASDWYVPRDYWGQGTQVTVSS
notes: as for B1
B6: b13 (42p155z2) anti-5T4/CD40 bispecific antibody (bispecific antibody, human IgG1, kappa, N297A)
heavy: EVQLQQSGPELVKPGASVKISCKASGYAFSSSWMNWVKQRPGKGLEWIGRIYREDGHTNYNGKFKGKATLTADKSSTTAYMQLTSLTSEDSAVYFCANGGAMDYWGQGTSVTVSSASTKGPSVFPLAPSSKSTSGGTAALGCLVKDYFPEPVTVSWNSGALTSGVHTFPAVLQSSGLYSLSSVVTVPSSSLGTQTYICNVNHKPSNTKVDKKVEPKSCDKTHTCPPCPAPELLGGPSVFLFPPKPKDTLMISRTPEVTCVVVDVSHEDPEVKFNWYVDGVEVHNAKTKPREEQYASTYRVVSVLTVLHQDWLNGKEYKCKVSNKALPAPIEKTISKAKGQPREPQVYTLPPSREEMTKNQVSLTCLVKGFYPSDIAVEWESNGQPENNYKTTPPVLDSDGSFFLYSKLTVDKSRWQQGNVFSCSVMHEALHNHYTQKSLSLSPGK
light: DIQMTQSTSSLSASLGDRVTISCRASQDISNYLNWYQQKPDGTVKLLIYYTSRLHSGVPSRFSGSGSGTDYSLTISNLEQEDIATYFCQQDNTLPWTFGGGTKLEIKRTVAAPSVFIFPPSDEQLKSGTASVVCLLNNFYPREAKVQWKVDNALQSGNSQESVTEQDSKDSTYSLSSTLTLSKADYEKHKVYACEVTHQGLSSPVTKSFNRGECGGGGSGGGGSGGGGSGGGGSEVQLVESGGGLVQPGGSLRLSCAASGFAFRSYTMSWVRQAPGKGLEWVSTITHNGAITTYAESAQGRFTISRDNSKNTLYLQMNSLRAEDTAVYYCAQGGGSNYYRESWGQGTQVTVSS
notes: also called 2+2 b13 format
B7: 2p551 chimeric monospecific antibody (antibody, V domains shown)
VH: QLHFVESGGGLVQPGGSLRLSCAASGFTLDYYAIGWFRQAPGKEREGVSCISGGGSTRYADSVKGRFTISRDNAKNTVYLQMNSLTPEDTAVYYCAAARLLSTNCVPRDSGSWGQGTQVTVSS
notes: as for B1
B8: 2p415 chimeric monospecific antibody (antibody, V domains shown)
VH: QLHFVESGGGLVQPGGSLRLSCAASGFTLDHYAMGWFRQAPGKEREGVSCISGGGSTRYADSAKGRFTISRDNAKNTVYLQMNSLTPEDTAVYYCAAARLLSRNCVPRDSGSWGQGTQVTVSS
notes: as for B1
B9: 42p155 chimeric monospecific antibody (antibody, V domains shown)
VH: PSQLVESGGGLVQPGGSLRLSCAASGFAFRSYTMSWVRQAPGKGLEWVSTITHNGAITTYAESAQGRFTISRDNAKNTLYLQMNSLKPEDTAVYYCAQGGGSNYYRESWGQGTQVTVSS
notes: Chimeric monospecific antibody (cAb) made from the VHH; also called 42p155 cAb
B10: 2p1294 chimeric monospecific antibody (antibody, V domains shown)
VH: QVQLVESGGGLVQPGGSLRLSCAASGFSFRRYTMSWVRQAPGKGLEWVSAISDNGAITTYTESAQGRFTISRDNAKNTLYLQMNSLKPEDTAVYYCAQGGGSNYYRESWGQGTQVTVSS
notes: as for B1
B11: 42p655 chimeric monospecific antibody (antibody, V domains shown)
VH: AVQLVESGGGLVQPGGSLRLSCAASGFAFRRYTMSWVRQAPGKGLEWVSSITDNGSITTYAESAQGRFTISRDNAKNTLYLQMNSLKPEDTAVYHCAQGGGSNYYRESWGQGTQVTVSS
notes: as for B1

Assays:
human OX40 protein = target: T1, human OX40 protein; assay: ELISA, plate-coated protein
Experimental: (§1) To evaluate the cross reactivity of chimeric anti-CD40 antibodies to other family members of TNF receptors, the ELISA binding towards human 4-1BB and human OX40 were performed.
(§2) Briefly, microtiter plates were coated with human 4-1BB protein or human OX40 protein at 1 μg/ml in PBS, 100 μl/well at 4° C. overnight, then blocked with 150 μl/well of 1% BSA. Ten-fold dilutions of 42p155, 2p834, 2p931, 42p655, 2p1294, 2p957, 42p495, 3p78, 2p415, 2p442, 2p551, 2p80 and 2p1130 antibodies starting from 100 nM were added to each well and incubated for 1 hour at RT. The plates were washed with PBS/Tween and then incubated with Anti-Human IgG (H&L) (GOAT) Antibody Peroxidase Conjugated for 30 mins at RT. After washing, the plates were developed with TMB substrate and analyzed by spectrophotometer at OD 450 nm.

human 4-1BB protein = target: T2, human 4-1BB protein (human, UniProt Q07011 24-186); assay: ELISA, plate-coated protein
T2 construct: also called 4-IBB
Experimental: as §1, §2

[1] = target: T3, cynomolgus CD40-His protein (cynomolgus, UniProt G7PG38 21-193); assay: ELISA, plate-coated cynomolgus CD40-His
T3 construct: His-tagged recombinant protein; also called cyno CD40 antigen
Experimental: (§3) To evaluate the binding activity of clones 42p155, 2p834, 2p931, 42p655, 2p1294, 2p957, 42p495, 3p78, 2p415, 2p442, 2p551, 2p80 and 2p1130, the chimeric monospecific antibody (mAb) from these clones were subjected to ELISA test, along with selicrelumab, the clinical benchmark anti-CD40 agonist antibodies.
as §2, with “The binding affinity of these clones to cynomolgus CD40 was also tested. Microtiter plates” for “Briefly, microtiter plates”, “with cynomolgus CD40-His” for “with human 4-1BB protein or human OX40”, “at 1.0” for “at 1”, “100 µl/well” for “100 μl/well”, “150 µl/well” for “150 μl/well”, “nm. As shown in FIG. 1B and Table 2, all these clones bound to cynomolgus CD40 at high activity, showing good cross-reactivity between human and cynomolgus CD40 proteins.” for “nm.”

[2] = target: T4, human CD40 on the cell surface (human, UniProt P25942 21-277); assay: cell-based or functional assay
human CD40-His protein = target: T5, human CD40-His protein (human, UniProt P25942 21-193); assay: ELISA, plate-coated human CD40-His
T5 construct: His-tagged recombinant protein; also called human CD40-his tag; recombinant CD40 protein
Experimental: as §3
as §2, with “human CD40-His” for “human 4-1BB protein or human OX40”, “at 1.0” for “at 1”, “150 µl/well” for “150 μl/well”

[3] = target: T4, human CD40 on the cell surface; assay: FACS, Jurkat cells overexpressing human CD40, PE anti-human IgG, MFI
Experimental: To evaluate the binding affinity of 5T4-CD40 bispecific antibodies to cell surface CD40, bispecific antibodies with formats of b 1 (42p155z2), b12 (42p155z2), b13 (42p155z2), b16 (42p155z2), b17 (42p155z2) and b18 (2p1130) were tested in Jurkat cell lines that overexpressed CD40 by FACS. A total number of 1×10⁵ Jurkat-CD40 cells in each well were incubated with 5-fold serially diluted antibodies starting from 100 nM for 30 minutes at 4° C. in FACS buffer. After wash by FACS buffer, PE conjugated-anti-human IgG antibody was added to each well and incubated at 4° C. for 30 minutes. After wash, MFI of PE was evaluated by MACSQuant Analyzer 16.

T5 sequence (P25942 21-193 limits assumed): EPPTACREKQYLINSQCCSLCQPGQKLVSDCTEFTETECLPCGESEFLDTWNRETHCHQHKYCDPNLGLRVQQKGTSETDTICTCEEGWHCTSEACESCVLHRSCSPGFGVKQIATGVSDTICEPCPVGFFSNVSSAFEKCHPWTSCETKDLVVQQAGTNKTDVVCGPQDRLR
T4 sequence (P25942 21-277): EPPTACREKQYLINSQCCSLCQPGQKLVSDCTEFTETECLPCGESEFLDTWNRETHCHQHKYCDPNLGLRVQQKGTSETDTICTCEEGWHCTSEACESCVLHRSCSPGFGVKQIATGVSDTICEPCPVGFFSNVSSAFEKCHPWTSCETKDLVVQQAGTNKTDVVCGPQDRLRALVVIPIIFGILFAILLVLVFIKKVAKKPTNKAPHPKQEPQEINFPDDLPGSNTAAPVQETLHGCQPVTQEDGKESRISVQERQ

Binder | binding result (human OX40 protein) | binding result (human 4-1BB protein) | EC50 [1] [nM] | CD40 NF-κB luciferase reporter (Jurkat), RLU [2] [nM] | EC50 (human CD40-His protein) [nM] | EC50 (read off the curve) [3] [nM] | binding result [3]
B1 | no binding (tested: 100 nM (highest concentration)) | no binding (tested: 100 nM (highest concentration)) | 1.08 | > 10 | 1.8 | – | –
B2 | – | – | – | – | – | ~2 | –
B3 | – | – | – | – | – | – | binds
B4 | no binding (tested: 100 nM (highest concentration)) | no binding (tested: 100 nM (highest concentration)) | 0.73 | > 10 | 2.56 | – | –
B5 | no binding (tested: 100 nM (highest concentration)) | no binding (tested: 100 nM (highest concentration)) | 1 | > 10 | 1.52 | – | –
B6 | – | – | – | – | – | – | binds
B7 | no binding (tested: 100 nM (highest concentration)) | no binding (tested: 100 nM (highest concentration)) | 0.13 | > 10 | 1.4 | – | –
B8 | no binding (tested: 100 nM (highest concentration)) | no binding (tested: 100 nM (highest concentration)) | 0.23 | > 10 | 1.27 | – | –
B9 | no binding (tested: 100 nM (highest concentration)) | no binding (tested: 100 nM (highest concentration)) | – | > 10 | – | – | –
B10 | no binding (tested: 100 nM (highest concentration)) | no binding (tested: 100 nM (highest concentration)) | 0.32 | > 10 | 1.16 | – | –
B11 | no binding (tested: 100 nM (highest concentration)) | no binding (tested: 100 nM (highest concentration)) | 0.35 | > 10 | 1.24 | – | –
